Test results reported in US11319368B2, “Treatment of hepatotoxicity with IL-11 antibody” (Singapore Health Services PTE LTD., priority 2019, dated 2022).
Entries after “also recorded” stand apart in the source; their conditions may differ.

Experiments:
NOX4 = target: T1, NOX4 (Homo sapiens, UniProt Q9NPH5); experiment: NOX4 inhibitor in rhIL11-stimulated human hepatocytes; type: cell-based; conditions: rhIL11 10 ng ml^-1, 24 h
T1 construct: Human hepatocytes (5200, ScienCell) were maintained in hepatocyte medium; host or cells: primary human hepatocytes
T1 sequence (Q9NPH5 whole entry): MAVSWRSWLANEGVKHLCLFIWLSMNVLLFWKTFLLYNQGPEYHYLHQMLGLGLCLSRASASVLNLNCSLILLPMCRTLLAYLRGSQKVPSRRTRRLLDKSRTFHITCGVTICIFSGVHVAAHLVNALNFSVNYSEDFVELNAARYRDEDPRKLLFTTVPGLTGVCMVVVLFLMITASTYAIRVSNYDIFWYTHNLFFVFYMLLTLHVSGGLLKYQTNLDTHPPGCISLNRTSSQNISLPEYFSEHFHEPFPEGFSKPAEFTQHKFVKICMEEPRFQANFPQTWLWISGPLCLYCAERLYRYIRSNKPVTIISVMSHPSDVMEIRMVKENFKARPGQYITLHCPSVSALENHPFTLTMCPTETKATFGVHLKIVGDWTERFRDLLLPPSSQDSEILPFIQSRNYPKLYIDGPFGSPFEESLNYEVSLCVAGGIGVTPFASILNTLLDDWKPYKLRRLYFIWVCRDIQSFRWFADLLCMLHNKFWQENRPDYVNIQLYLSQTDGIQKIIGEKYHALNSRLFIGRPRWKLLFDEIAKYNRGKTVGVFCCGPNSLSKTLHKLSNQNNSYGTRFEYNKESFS
T1 sequence (P13498 2-195 partner limits assumed): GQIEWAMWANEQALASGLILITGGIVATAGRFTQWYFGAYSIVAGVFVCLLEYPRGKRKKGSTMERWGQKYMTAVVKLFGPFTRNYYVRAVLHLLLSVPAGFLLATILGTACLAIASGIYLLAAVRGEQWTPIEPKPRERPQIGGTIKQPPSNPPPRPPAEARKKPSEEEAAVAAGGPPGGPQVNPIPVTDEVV

human hepatocytes [1] = conditions: 0.2 mM H2O2, 24 hours
Protocol: Human hepatocytes (5200, ScienCell) were grown and maintained at 37° C. and 5% CO2. Hepatocyte medium (5201, ScienCell) supplemented with 2% fetal bovine serum and 1% Penicillin-streptomycin was renewed every 2-3 days and cells were passaged at 80% confluence using standard trypsinization techniques. All the experiments were carried out at low cell passage (P2-P3) and cells were serum-starved for 16 hours prior to respective stimulations (24 hours) that were performed in serum-free hepatocyte media. Stimulated cells were compared to unstimulated cells that have been grown for the same duration under the same conditions (serum-free hepatocyte media), but without the stimuli. […] The levels of IL-11 in mouse serum and hepatocyte supernatant were quantified using Mouse IL-11 DuoSet (DY418 and DY008, R&D Systems) and Human IL-11 Quantikine ELISA kit [MUT], R&D Systems), respectively, according to the manufacturer's protocol.

human hepatocytes [2] = experiment: APAP-mediated activation of Erk and Jnk, western blot; type: cell-based; conditions: APAP 10 mM, 24 hours; X209 2 μg/ml
lethal APAP overdose = experiment: Lethal APAP overdose in mice, X209 10 h after; type: in vivo, mouse; conditions: for gross liver morphology / serum ALT levels versus normal (saline) control mice: day 8 after APAP 550 mg/kg, 20 mg/kg 10 h after
Protocol: Mice were euthanized at 24 hours and 192 hours (8 days). Serum ALT levels were analysed as described in Example 4. Livers were harvested, and fixed as described in Example 4, and digital photographs were taken.

AILI [3] = experiment: X209, NAC or NAC+X209 3 h after APAP in mice
Protocol: (§1) Mice were administered anti-IL11Rα (X209) or IgG isotype control antibody at different times and doses, as described above or in the figure legends.
(§2) The levels of alanine transaminase (ALT) or aspartate aminotransferase (AST) in mouse serum and hepatocyte supernatant were measured using ALT Activity (ab105134, Abcam) or AST (ab105135, Abcam) Assay Kits. Liver glutathione sulfhydryl (GSH) measurements were performed using Glutathione Colorimetric Detection Kit (EIAGSHC, Thermo Fisher). All colorimetric assays were performed according to the manufacturer's protocol.
Western blots were carried out from hepatocyte and liver tissue lysates. Hepatocytes and tissues were homogenized in radioimmunoprecipitation assay (RIPA) buffer containing protease and phosphatase inhibitors (Thermo Fisher), followed by centrifugation to clear the lysate. Protein concentrations were determined by Bradford assay (Bio-Rad). Equal amounts of protein lysates were separated by SDS-PAGE, transferred to PVDF membrane, and subjected to immunoblot analysis for the indicated primary antibodies. Proteins were visualized using the ECL detection system (Pierce) with the appropriate secondary antibodies.

[4] = test system: APAP overdose acute liver injury; experiment: Severe APAP overdose in mice, anti-IL11Rα antibody (X209) 16 h before; type: in vivo, mouse; conditions: 20 mg/kg IP 16 hours before APAP 400 mg/kg
[5] = test system: APAP-induced liver injury; experiment: Mouse model of APAP-induced liver injury, anti-IL-11Rα antibody 16 h prior to APAP (Example 2)
Protocol: Liver samples were excised and fixed for 48 hours at room temperature in 10% neutral-buffered formalin (NBF), dehydrated, embedded in paraffin blocks and sectioned at 7 μm. Sections were stained with Hematoxylin&Eosin (H&E) according to standard protocol and examined by light microscopy.

[6] = test system: primary human hepatocytes; experiment: APAP-challenged primary human hepatocytes with X209; type: cell-based; conditions: APAP 20 mM, X209 2 μg ml^-1, 24 h
Text: PI^+ve cells were quantified with the flow cytometer (Fortessa, BD Biosciences) and analyzed with FlowJo version 7 software (TreeStar).

AILI [7] = experiment: X209 preventive dosing 16 h prior to APAP in mice (6.8)
Protocol: as §1, §2
Livers were fixed for 48 h at room temperature (RT) in 10% neutral-buffered formalin (NBF), dehydrated, embedded in paraffin blocks and sectioned at 7 μm. Sections were stained with H&E according to standard protocol and examined by light microscopy.

[8] = test system: APAP overdose acute liver injury; experiment: Severe APAP overdose in mice, X209 10 h after; type: in vivo, mouse
Protocol: Mice were euthanized at 24, 36 and 48 hours. Serum ALT levels were analysed as described in Example 4.
Livers were harvested, and fixed as described in Example 4, and digital photographs were taken.
Western blots were also performed on protein extracts prepared from the livers of the mice.

human hepatocytes [9] = experiment: APAP-mediated hepatocyte death, Annexin V/PI flow cytometry; conditions: APAP 20 mM, 24 hours; X209 2 μg/ml
Protocol: Cells were serum-starved for 16 hours prior to their used in experiments, by culture in serum-free hepatocyte medium.
Hepatocytes were then stained using the FITC Annexin V/Dead Cell Apoptosis Kit (V13242, Thermo Fisher) according to the manufacturer's instructions, and Annexin V-FITC/PI-stained cells were analysed by flow cytometry using a BD LSRFortessa flow cytometer (BD Bioscience). 10,000 cells were analyzed per sample. Data was analyzed using FlowJo version 7 software.

kidney = conditions: 100-1000 μg/kg, IP; 10 minutes prior to or 30-60 minutes following IR; cited from earlier work
[10] = test system: APAP overdose acute liver injury; experiment: Severe APAP overdose in mice, anti-IL11 antibody (X203) 16 h before; type: in vivo, mouse; conditions: 20 mg/kg IP 16 hours before APAP 400 mg/kg; 24 hours after APAP
AILI [11] = experiment: rhIL11 or rmIL11 injection in APAP OD mice; type: in vivo, mouse
Protocol: FIGS. 10A to 10L. […] (A, B, K, L) 24 h. […] FC: fold change

human hepatocytes [12] = experiment: rhIL11 versus rmIL11 on human hepatocytes; type: cell-based; conditions: 10 ng ml^-1
liver = conditions: single subcutaneous injection 500 μg kg^-1
Protocol: (A) Effect of recombinant human IL11 (rhIL11, 10 ng ml^−1) or recombinant mouse IL11 (rmIL11, 10 ng ml^−1) on ERK, JNK and CASP3 activation status in mouse hepatocytes. (B) ALT levels in mouse hepatocyte supernatant following stimulation by rmIL11 (10 ng ml^−1) or by increasing doses of rhIL11 (1, 5, 10, 15 and 20 ng ml^−1). (C) Schematic of mice receiving a single subcutaneous injection of either saline, rhIL11, or rmIl11 (500 μg kg^−1). (D) Western blot analysis of hepatic p-ERK, p-JNK, and Cl. […] Dose-dependent inhibition effect of rhIL11 on rmIL11-induced (K) ALT secretion and (L) CASP3 activation by mouse hepatocytes. (A, B, K, L) 24 h. (B, K) Data are shown as mean±SD; (E, G) Data are shown as box-and-whisker with median (middle line), 25th-75th percentiles (box), and minimum-maximum values (whiskers). (B, K) Two-tailed, Tukey-corrected Student's t-test; (E) two-tailed Student's t-test; (G) two-tailed Dunnett's test.
The levels of alanine transaminase (ALT) or aspartate aminotransferase (AST) in mouse serum and hepatocyte supernatant were measured using ALT Activity (ab105134, Abcam) or AST (ab105135, Abcam) Assay Kits. […] All colorimetric assays were performed according to the manufacturer's protocol.
Western blots were carried out from hepatocyte and liver tissue lysates. […] Protein concentrations were determined by Bradford assay (Bio-Rad). […]

mouse hepatocytes = experiment: rhIL11 versus rmIL11 on mouse hepatocytes; type: cell-based
Text: Mouse hepatocytes (ABC-TC3928, AcceGen Biotech) were maintained in mouse hepatocyte medium (ABC-TM3928, AcceGen Biotech) supplemented with 1% Penicillin-streptomycin.

[13] = listed as Antagonist antibody inhibitor of IL-11 mediated signalling
[14] = 10 mg/kg IP 16 hours prior to APAP 400 mg/kg
[15] = 20 mg/kg 10 h after APAP 400 mg/kg
[16] = 20 mg/kg IP 10 hours after APAP 400 mg/kg

Molecule: CN(C)c1cccc(-c2c3c(=O)n(-c4ccccc4Cl)[nH]c3cc(=O)n2C)c1 [GKT-13781]
- IL11-stimulated GSH depletion, CASP3 activation and cell death (NOX4): prevented IL11-stimulated GSH depletion, CASP3 activation and cell death in a dose-dependent manner

Molecule: OO [H2O2, hydrogen peroxide]
- IL-11 upregulated in the supernatant (human hepatocytes [1]): 10 fold

B1: X209: antagonist (neutralizing) anti-IL11Rα antibody (Widjaja et al., Gastroenterology 2019; Aldevron) (antibody, V domains shown)
VH: QVQLQQPGAELVRPGSSVKLSCKASGYTFTNYWMHWLKQRPVQGLEWIGNIGPSDSKTHYNQKFKDKATLTVDKSSSTAYMQLNSLTSEDSAVYYCARGDYVLFTYWGQGTLVTVSA
VL: DIVLTQSPATLSLSPGERATLSCRASQSISNNLHWYQQKSHEAPRLLIKYASQSISGIPARFSGSGSGTDFTLSFSSLETEDFAVYFCQQSYSWPLTFGQGTKLEIK
- levels of p-ERK and pJNK (human hepatocytes [2]): substantially reduce the levels of p-ERK and pJNK
- survival by the study end (lethal APAP overdose; 20 mg/kg 10 h after lethal APAP 550 mg/kg, 8 days): 90%
- survival relative to IgG-treated controls (lethal APAP overdose; 20 mg/kg IP 10 hours after APAP 550 mg/kg, monitored 8 days): significantly improved survival
- gross liver morphology (lethal APAP overdose): normal liver morphology
- serum ALT levels versus normal (saline) control mice (lethal APAP overdose): comparable to controls
- gross liver morphology (lethal APAP overdose; [13]): restore gross liver morphology
- serum ALT levels versus normal (saline) control mice (lethal APAP overdose; [13]): not significantly different
- JNK and ERK activation (AILI [3]; 2.5-10 mg kg^-1 3 h after APAP): Reduced JNK and ERK activation
- markers of liver damage and hepatic GSH levels (AILI [3]; 2.5-10 mg kg^-1 3 h after APAP): dose-dependent improvements in markers of liver damage and in hepatic GSH levels
- ALT reduction (AILI [3]; 3 h after APAP, NAC 500 mg kg^-1, X209 5 mg kg^-1): 47%
- hepatocyte necrosis, H&E [4]: substantially less hepatocyte necrosis
- serum ALT levels ([4]; 24 hours after APAP): substantial reduction in serum ALT levels
- APAP-induced loss in liver mass (liver index) [5, 14]: prevent APAP-induced loss in liver mass
- centrilobular necrosis, H&E liver histology [5, 14]: reduced
- ALT levels lower compared to IgG control ([5]; 10 mg/kg IP 16 hours prior to APAP 400 mg/kg, 24 hours post-APAP): 55%
- mobility and activity of the mice ([5]; 24 hours post-APAP treatment): normal mobility and activity
- APAP-induced NOX4 upregulation and depletion in hepatocyte GSH levels [6]: blocked
- CASP3 cleavage, cell death, ERK and JNK activation [6]: inhibited CASP3 cleavage and cell death, as well as ERK and JNK activation
- centrilobular necrosis, histology (AILI [7]; 10 mg kg^-1 16 h prior to APAP): limited histological evidence of centrilobular necrosis
- hepatic GSH levels (AILI [7]; 10 mg kg^-1 16 h prior to APAP): largely restored hepatic GSH levels
- reduction of serum markers of liver damage (AILI [7]; 10 mg kg^-1 16 h prior to APAP 400 mg kg^-1): over 70%
- EdU staining, nuclei with recent DNA synthesis [8, 15]: very large numbers of nuclei with evidence of recent DNA synthesis
- cleaved CASP3 in liver [8, 15]: reduction in cleaved CASP3 at 24 h
- liver damage (gross anatomy, histology, serum IL11, ALT and AST levels) [8, 15]: largely reversed liver damage by the second day after APAP
- liver regeneration markers (PCNA, Cyclin D1/D3/E1, p-RB) [8, 15]: strong upregulation of PCNA, Cyclin D1/D3/E1, and phosphorylation of RB
- gross liver morphology [8, 16]: restore gross liver morphology
- hepatic ERK and JNK activation (p-ERK, pJNK1, pJNK2), western blot [8, 16]: substantially reduced the levels of p-ERK, pJNK1 and pJNK2; also recorded: effectively blocked ERK and JNK activation
- serum ALT levels ([8]; 20 mg/kg IP 10 hours after APAP 400 mg/kg, 24, 36 and 48 hours): substantial reduction in serum ALT levels
- proportion of dead hepatocytes (human hepatocytes [9]): substantially reduce the proportion of dead hepatocytes

B2: PEGylated rhIL11: PEGylated rhIL11 (Lee et al. 2012) (conjugate, UniProt P20809 22-199, looked up)
Interleukin-11: PGPPPGPPRVSPDPRAELDSTVLLTRSLLADTRQLAAQLRDKFPADGDHNLDSLPTLAMSAGALGALQLPGVLTRLRADLLSYLRHVQWLRRAGGSSLKTLEPELGTLQARLDRLLRRLQLLMSRLALPQPPPDPPAPPLAPPSSAWGGIRAAHAILGGLHLTLDWAVRGLLLLKTRL
modifications: PEG
- renoprotection (kidney): The authors conclude that IL11 is renoprotective based on pre-

B3: X203: antagonist anti-IL11 antibody (Ng et al., Sci Transl Med. 2019) (antibody, V domains shown)
VH: EVQLQQSGPELVKPGASVKIPCKASGYTFTDYNMDWVKQSHGKSLEWIGDINPHNGGPIYNQKFTGKATLTVDKSSSTAYMELRSLTSEDTAVYYCARGELGHWYFDVWGTGTTVTVSS
VL: DIVLTQSPASLAVSLGQRATISCRASKSVSTSGYSYIHWYQQKPGQPPKLLIYLASNLDSGVPARFSGSGSGTDFTLNIHPVEEEDAATYYCQHSRDLPPTFGGGTKLEIK
- serum ALT levels [10]: substantial reduction
- serum AST levels [10]: substantial reduction

B4: rmIL11: recombinant mouse IL11 (UniProtKB: P47873, Genscript) (protein)
chain: PGPPAGSPRVSSDPRADLDSAVLLTRSLLADTRQLAAQMRDKFPADGDHSLDSLPTLAMSAGTLGSLQLPGVLTRLRVDLMSYLRHVQWLRRAGGPSLKTLEPELGALQARLERLLRRLQLLMSRLALPQAAPDQPVIPLGPPASAWGSIRAAHAILGGLHLTLDWAVRGLLLLKTRL
- hepatic GSH levels after APAP (AILI [11]; APAP injury): did not
- protection against AILI (AILI [11]; subcutaneous injection, APAP OD): not protective
- ERK and JNK signaling and hepatocyte death (human hepatocytes [12]): did not
- hepatic ERK and JNK phosphorylation (liver): gradual ERK and immediate JNK activation
- ERK and JNK phosphorylation, CASP3 cleavage (mouse hepatocytes; 10 ng ml^-1, 24 h): stimulated ERK and JNK phosphorylation and induced CASP3 cleavage
- mouse hepatocyte cell death (ALT in supernatant) (mouse hepatocytes; 24 h): induced mouse hepatocyte cell death
